# Assay results from article PMC2119555.
# Where “and” joins values, the source holds several entries; their conditions need not be identical. Equal entries are not always repeated.
# Experiments:
# [1] = target: murine FGFR-2 (bek) expressed on CHO cells (murine) (UniProt P21803); test: radioligand binding
# [2] = target: murine FGFR-1 (flg) expressed on CHO cells (murine) (UniProt P16092); test: radioligand binding
Kd [1],Kd [2],fold more unlabeled competitor required than of K140 [2],fold affinity over K-FGF (competition) [1],fold affinity over bFGF and K-FGF (competition against 125I-bFGF) [1],Binder
0.14 nM,0.28 nM,5 fold,,,"recombinant wild-type K-FGF (human K-FGF/HST, FGF-4) (ligand, 125I-labeled Bolton-Hunter reagent (where used as the labelled ligand)) APTAPNGTLEAELERRWESLVALSLARLPVAAQPKEAAVQSGAGDYLLGIKRLRRLYCNVGIGFHLQALPDGRIGGAHADTRDSLLELSPVERGVVSIFGVASRFFVAMSSKGKLYGSPFFTDECTFKEILLPNNYNAYESYKYPGMFIALSKNGKTKKGNRVSPTMKVTHFLPRL"
0.06 nM,0.09 nM,,2 fold,2 fold and 3 fold,"recombinant K140 (NH2-terminally truncated K-FGF, residues 67-206) (ligand, 125I-labeled Bolton-Hunter reagent (where used as the labelled ligand)) MAAVQSGAGDYLLGIKRLRRLYCNVGIGFHLQALPDGRIGGAHADTRDSLLELSPVERGVVSIFGVASRFFVAMSSKGKLYGSPFFTDECTFKEILLPNNYNAYESYKYPGMFIALSKNGKTKKGNRVSPTMKVTHFLPRL"
